# B1: MPV464 (antibody, V domains shown)
# VH: QVQLQESGPGLVKPSQTLSLTCTVSGGSVRGGGDYWSWIRRPPGKGLEWIGHIYNSGTTFYNPSLKSRVTISIDTSKNQFSLKLRSVTAADTAVYYCGRVGSRATGLPDWIDPWGQGTLVTVSS
# VL: SYELTQPPSVSVSPGQTATITCSGTNLGAKYSCWYQQKPGQSPVLVIFQDNKRASGIPARFSASTSGDTATLTISGTQVMDEADYFCQAWDSRTAVFGGGTTLTVL
# B2: MPV483 (antibody, V domains shown)
# VH: EVQLVQSGAELKKPGSSVKVSCKASGDTFSNYAISWVRQAPGQGLEWMGGIIPIYNTANYAQKFQGRVTLTADESTSTAYMELSSLRSEDTAVYYCARDVRNNWSVLRGARYYYYGMDVWGQGTTVTVSS
# VL: DIVMTQTPFSLSASVGDRVTVTCRASQDISNSLAWFQQKPGKAPKSLIYAASSLQSGVPTRFSGGGSGTDFTLTISSLQPEDFATFYCLQYDSFPPTFGGGTKVEI
# B3: MPV467 Fab (Fab, V domains shown)
# VH: EVQLVESGGGVVRPGTSLRVSCAAFDFNFRDYGMHWVRQAPGKGLEWVAGIWYDGSNKDYADSVKGRFTISRDNSQNTLYLQMNSLRVEDTAVYYCARDPRTHREGALSHFDSWGQGTLVTVSS
# VL: PNELTQDPAVSVALGQTVRITCQGDSLRNYFAGWYQQKPGQAPLLVLYGENIRPSGIPDRFSGSSSGNTVSLTITGAQAEDEADYYCNSRDNSGNHWVFGGGTRLTVL
# B4: MPE8 (antibody, V domains shown)
# VH: EVQLVESGGGLVKPGGSLRLSCAASGFTFSSYSMNWVRQAPGKGLEWVSSISASSSYSDYADSAKGRFTISRDNAKTSLFLQMNSLRAEDTAIYFCARARATGYSSITPYFDIWGQGTLVTVSS
# VL: QSVVTQPPSVSGAPGQRVTISCTGSSSNIGAGYDVHWYQQLPGTAPKLLIYDNNNRPSGVPDRFSASKSGTSASLAITGLQAEDEADYYCQSYDRSLSGVFGTGTKVTVL
# How the values were obtained:
# [1] = biological target: hMPV B2 F monomer (human metapneumovirus); test: ELISA on coated recombinant protein, OD 405 nm
# [2] = biological target: hMPV A1 F monomer (human metapneumovirus); test: ELISA on coated recombinant protein, OD 405 nm
# [3] = biological target: hMPV A2 F (human metapneumovirus); test: ELISA on coated recombinant protein, OD 405 nm
# [4] = biological target: hMPV A1 F (human metapneumovirus); test: ELISA on coated recombinant protein, OD 405 nm
# [5] = biological target: hMPV B2 F trimer (heated) (human metapneumovirus); test: ELISA on coated recombinant protein, OD 405 nm
# [6] = biological target: hMPV B2 F GCN4 (human metapneumovirus); test: ELISA on coated recombinant protein, OD 405 nm
# [7] = biological target: hMPV B1 F (human metapneumovirus); test: ELISA on coated recombinant protein, OD 405 nm
# [8] = biological target: hMPV B2 F protein (his-tagged, not trypsin treated) (human metapneumovirus); test: ELISA on coated recombinant protein, OD 405 nm
# [9] = biological target: hMPV A1 F trimer (heated) (human metapneumovirus); test: ELISA on coated recombinant protein, OD 405 nm
# [10] = biological target: DS-CavEs2-IPDS (human metapneumovirus); test: cryo-EM structure
# [11] = biological target: hMPV B2 F protein (his-tagged, not trypsin treated) (human metapneumovirus); test: BLI epitope binning on hMPV B2 F; first mAb MPV483, second mAb MPE8
# [12] = biological target: hMPV B2 F protein (his-tagged, not trypsin treated) (human metapneumovirus); test: BLI epitope binning on hMPV B2 F; first mAb MPV314, second mAb MPE8
# [13] = biological target: hMPV B2 F protein (his-tagged, not trypsin treated) (human metapneumovirus); test: BLI epitope binning on hMPV B2 F; first mAb MPV487, second mAb MPE8
# [14] = biological target: hMPV B2 F protein (his-tagged, not trypsin treated) (human metapneumovirus); test: BLI epitope binning on hMPV B2 F; first mAb MPV503, second mAb MPE8
# [15] = biological target: hMPV B2 F protein (his-tagged, not trypsin treated) (human metapneumovirus); test: BLI epitope binning on hMPV B2 F; first mAb MPV481, second mAb MPE8
# [16] = biological target: hMPV B2 F protein (his-tagged, not trypsin treated) (human metapneumovirus); test: BLI epitope binning on hMPV B2 F; first mAb MPV488, second mAb MPE8
# [17] = biological target: hMPV B2 F protein (his-tagged, not trypsin treated) (human metapneumovirus); test: BLI epitope binning on hMPV B2 F; first mAb MPV414, second mAb MPE8
# [18] = biological target: hMPV B2 F protein (his-tagged, not trypsin treated) (human metapneumovirus); test: BLI epitope binning on hMPV B2 F; first mAb MPV477, second mAb MPE8
Binder,EC50 [1],EC50 [2],EC50 [3],EC50 [4],EC50 [5],EC50 [6],EC50 [7],EC50 [8],EC50 [9],buried surface area on hMPV F (heavy chain) [10],buried surface area on hMPV F (light chain) [10],% binding of the second mAb after the first mAb [11],% binding of the second mAb after the first mAb [12],% binding of the second mAb after the first mAb [13],% binding of the second mAb after the first mAb [14],% binding of the second mAb after the first mAb [15],% binding of the second mAb after the first mAb [16],% binding of the second mAb after the first mAb [17],% binding of the second mAb after the first mAb [18]
B1,0.098 mg/L,0.067 mg/L,0.083 mg/L,0.28 mg/L,0.29 mg/L,0.12 mg/L,0.086 mg/L,0.98 mg/L,0.24 mg/L,–,–,–,–,–,–,–,–,–,–
B2,0.13 mg/L,0.16 mg/L,0.07 mg/L,0.12 mg/L,0.33 mg/L,0.14 mg/L,0.12 mg/L,0.22 mg/L,0.27 mg/L,–,–,–,–,–,–,–,–,–,–
B3,–,–,–,–,–,–,–,–,–,567 Å^2,322 Å^2,–,–,–,–,–,–,–,–
B4,–,–,–,–,–,–,–,–,–,–,–,71%,4%,4%,-1%,72%,42%,2%,1%

# From US20250188153A1
